A protein production outcome set (Wang et al. 2014)

Assay: label from the status in PepcDB records

Sequence | protein production
MEWEVKEDGYSEEVSSLFLDHLPSKILEAKNRAEQLLTLQEKPILDIAEYNHAKVLAAFQEERVSTYHLQGTTGYGLGDSGRETLDRVMARILGTEAALVRGQFVSGTHAIATALFGVLRPGDHFISVTGDPYDTLEEVIGIRGTGQGSLKDFGVSYDSVPLSEEGTIQHSLVSQGIKPNTKMLILQRSRGYAWRNSLPMEQIAAFVAYVREHFPHLIIFVDNCYGELVEKCEPGDVGADLMAGSLIKNLGGSLAPTGGYIAGRQELVEKAACRLTAPGIGGEVGATLSWQLQFFQGLFFSPLTVSEAIRGAIFSAAFWQALGFEVNPLPDALRTDLIQAVKLNSREAMIAFCQGFQKGSPVDSHVLPIPSGMPGYEDEVIMAGGTFIQGATSEFSADGPMRDPFIAYQQGGVSMNYIKFGNLLAAQKLWEQGLLK | failed
MLMNNRVNNMMRTYKFRIYISKSIQETIEEHLNICRYLYNYLLEQKTKNPKLNKGDTQKLITEHKKENPELKKVHSKALQMVNNKLWGNLKALGKLKQNGHKVGKLRFKSSKNHYKTIEYNQSGFKIKDNKLYLSKIGEISIKLHRKIKGEIKGVIIKKELTNKWFAFFQVEEEPKPLPKTNKVVGIDLGIDGYTIDSDGNKFENPKFIDETLDKIKKVQKNLSRKVRGSNNYKKTKLKLIKVYDKLNNQKNDFLHKLSRYYINNYDKIVLEDLNIKSMVENKKGQKTLNRHILDGSWKKFINLLLYKAEGAGREVILINPAYTSKKCFNCGCVVSSLRLSDRIFFCPNCGWKIDRDYNASLNILKSGLGESVVPAEGRPLLRVIPYIKVISGQVSPMNQEALPEGRGLRKPKGFRSTPSVREG | failed
MSKVDTIQEKLIPPIMKFANSKIITAIKDGVIITMPLTLVGSIFLLIANFPIKSWNSWMTAIFGPNWAVPLTQVSGSTFDIMAIAAVIGIAAQYSKNEGQDPVTAGLLGAVAFLIIMPSYSPINIGDKVGGIVMKHADKVQSVIPKAWTGGKGMIAALIIGVLTGYIYSWFLKRDIRIKLPESVPSGVSNAFSALIPGAVIITGSMLIFIFFNIVTGATALEWIYKVLQIPLQGITDSLGGAIAIPFVISFFWWFGVHGATLIGGVMNSIYQANTLANQDVFKAGHKLIASGAGKNAHIVCQQFQDNFVTLGGSGITLGLVAACFLFARSQRLKQLGKLALVPGCFNINEPVLFGLPIVLNPLMFIPFLICPLVSGILTYFAIYTGLVPCFTAVQAIWTTPPVLSGLIVAGWRGAVLQLIIIAIAAIVYFPFFKSLDKQYYQEEISGEAE | failed
MISIPVAQQQKLPRLVLPRVYGFPPNRETLGGTAYLIVENDGNTLIDSPPWTDGSQHWLREQGGVKRLILTHRGAIARVRAIQDTFDCEVMIHAQEAYLLPQVTVTPFNHHLAIGETLEILWTPGHSPGSACVYWSCQGGVLFTGRHLLPTPTGELAPIKTATTFHWPRQLRSVEALKAFCRQKSLSYLCPGANMGFLRGTLAIANAQAVLQGLSVDNLLCDKFLEHHHHHH | failed
MPMTVVSGRFSTALLPTCFSLSRLHSVKYAAQRRVVFVSRSAHASSASVSVETNSNSNVDFVIEKKDKNRGEKKILACPICYNSLAWISQPNGLIESAASGIQVQCNTCKRSYSGNETHLDLAVASGSKRYSEPMPLSTELFRTPLVSFLYERGWRQNFIWGGFPGPEKEFEMAKAYLKPVLGGNIIDASCGSGMFSRLFTRSDLFSLVIALDYSENMLRQCYELLNKEENFPNKEKLVLVRADIARLPFLSGSVDAVHAGAALHCWPSPSSAVAEISRVLRPGGVFVATTFIYDGPFSFIPFLKNLRQEIMRYSGSHIFLNERELEDICKACGLVNFTRVRNGPFIMLSATKPS | failed
HSAIVILDSRGNIQRFNRLCEDYTGLKEHDVIGQSVFKLFMSRREAAASRRNNRVFFRSGNAYEVELWIPTRKGQRLFLFRNKFVHSGSGKNEIFLICSGTD | failed
CTFKSVADEWVKTKTKLKPKTVQGNWRKLELYAFPKFGEIPVKSLTPIIVQEAFRPIARRGKLETVKRTIQLVNEIMRFAINSGLIQHNVLSGVG | failed
STTEEESLSAAEEGYNVQRDYWRQAEESDGFDIENIKLPPGMHGRVMGLITYNCQLCYRYPFPVLVKLYAKFGLHRYNLIKGTSFELAALMKFNMLQNYMSSFYMTLLAHDPDPAASSSQKTFQVRVDEQQFGTLGINCSIARPKHEGDLLEVSTKTPFIPHFHGGALGDGIFKGELPDCLSDDALNALMEAVSKDELPEHVLDDALYARAGGIFQGELPDWPSDDALNDGKRFYMLKESEWQATDWISMYLELVITTTDRSITEPEVLSKLEIVKVAIETATKDEEPSNERLKAYRAHFYITFKGLAEPRAPRQVFEIGEHVERQAIVRRVMGHRGDLTLKGKLCGGQYIKRRSLALKSGEESPNCKKQTRVG | failed
MGDIEGINIQSMASEIKKLRHKIETLEQQNSDLEIALTTAVEHGDAIESELFSTNDRLRGEVRERVIAERRLSKVLTVVSQQKDDLEVLVQTITEHSDEIDTQWLSRYSEVEALARLDPLTSIANRRMLDSALEQEWTRSLRSGSPLSVAMCDLDLFKAYNDRYGHNRGDQVLIAFAEILRGCSRRPPDLPARVGGEEFLILFPETDLAGARQVAEAIRLALWTLAIPHADSPHGRVTVSIGLACVFPRPEGDPADLIAQADFRLYEAKAHNRNTVRA | failed
MCYASMEMSAPIRFGTEGFRGVIAREFTFATLHRLAEAYGRHLLERGGGLVVVGHDTRFLADAFARALSGHLAGMGLKVVLLKGPVPTPLLSFAVRHLKAAGGAMLTASHNPPQYLGVKFKDATGGPIAQEEAKAIEALVPEEARALEGAYETLDLREAYFEALKAHLDLKALSGFSGVLYHDSMGGAGAGFLKGFLRHVGLEIPVRPIREEPHPLFHGVNPEPIPKNLGVTLAVLGPETPPSFAVATDGDADRVGVVLPGGVFFNPHQVLTTLALYRFRKGHRGRAVKNFAVTWLLDRLGERLGFGVTTTPVGFKWIKEEFLKGDCFIGGEESGGVGYPEHLPERDGILTSLLLLESVAATGKDLAEQFKEVEALTGLTHAYDRLDLPLKAPLDLTPFREPRPLAGLTPKGVDTLDGVKWLYEEAWVLFRASGTEPVVRIYVEAQSPELVRALLEEARKLVEG | not failed
MSILQGILDTYAQFFDLDMWIKVLQDPVSWGLIGTLVVLEGLLSADNALVLAVMVKHLPEEKRKKALFYGLIGAYVFRFIAIGIGMFLIKLAWVKVLGALYLAWLSVKYFIDKRKGNAEEEEAHGMNQNSILFRMFGVFWGTVAMVELMDIAFSVDSVLAAFGVSNEVWILLLGGMLGILMMRGIAGVFLKLLERIPELETTAYILILIIAAKMLLSVIHIEISHTVFFIILVVAFGATFILHYMKNSGQAKEEVAATKEDNK | failed
NFVPGMEFSMADASSIAIIGGADGPTAIFLASQLSPDLLGAIAVAAYSYMALVPIIQPPIMKALTTPEERKIKMAQLRHVGKTEKIVFPLV | failed
MTVVSVDKDVEALSFSIVAEFDADVKRVWAIWEDPRQLERWWGPPTWPATFETHEFTVGGKAAYYMTGPDGTKARGWWQFTTIEAPDHLEFDDGFADEHGAPVDELGVTHATVKLEPLENRTRMTIISTFESEEQMQKMAEMGMEEGMREAIEQIDAVLSEPANALEHHHHHH | not failed
MGHHHHHHSHLYPGSVYGRLIDLCQPTQKKYQIAVTKVLGKNMDAIIVDSEKTGRDCIQYIKEQRGEPETFLPLDYLEVKPTDEKLRELKGAKLVIDVIRYEPPHIKKALQYACGNALVCDNVEDARRIAFGGHQRHKTVALDGTLFQKSGVISG | not failed
MTDEIISYQKAKLAKNLAISTASKWLFVHSSTGGSATNLSIAQYATLINGIQSAIKCQVILTAGKGERERAVELAEKLTDQNVVIYDKNDGLADFTRSLACADLFIAGSTGPLHIAGGLNIPTVGFYPSRLSATPRRWRPINQVDKHLAFCPPSGKQCEMDLTLISIEQALTSVIPFIKKMWQLSLEHHHHHH | not failed
